# Test results: IntAct's records for PubMed 35512704
# B1: Speckle-type POZ protein (Homo sapiens), O43791 (parent)
# chain: MSRVPSPPPPAEMSSGPVAESWCYTQIKVVKFSYMWTINNFSFCREEMGEVIKSSTFSSGANDKLKWCLRVNPKGLDEESKDYLSLYLLLVSCPKSEVRAKFKFSILNAKGEETKAMESQRAYRFVQGKDWGFKKFIRRDFLLDEANGLLPDDKLTLFCEVSVVQDSVNISGQNTMNMVKVPECRLADELGGLWENSRFTDCCLCVAGQEFQAHKAILAARSPVFSAMFEHEMEESKKNRVEINDVEPEVFKEMMCFIYTGKAPNLDKMADDLLAAADKYALERLKVMCEDALCSNLSVENAAEILILADLHSADQLKTQAVDFINYHASDVLETSGWKSMVVSHPHLVAEAYRSLASAQCPFLGPPRKRLKQS
# Variants of: B1
# Conditions: with brd4_human BRD4, O60885
row,effect of a mutation on the interaction,Variant
1,disrupting interaction strength,F133V

# Variants of: B1
# Conditions: with ncoa3_human NCOA3, Q9Y6Q9
row,effect of a mutation on the interaction,Variant
1,disrupting interaction strength,F133V

# Variants of: B1
# Conditions: with jun_human JUN
row,effect of a mutation on the interaction,Variant
1,with no effect,F133V

# Variants of: B1
# Conditions: with akt1_human AKT1, P31749
row,effect of a mutation on the interaction,Variant
1,with no effect,F133V

# Variants of: B1
# Conditions: with alk_human ALK
row,effect of a mutation on the interaction,Variant
1,with no effect,F133V

# Variants of: B1
# Conditions: with aph1a_human APH1A
row,effect of a mutation on the interaction,Variant
1,with no effect,F133V

# Variants of: B1
# Conditions: with arnt_human ARNT
row,effect of a mutation on the interaction,Variant
1,with no effect,F133V

# Variants of: B1
# Conditions: with asxl2_human ASXL2, Q76L83
row,effect of a mutation on the interaction,Variant
1,with no effect,F133V

# Variants of: B1
# Conditions: with bakor_human ATG14, Q6ZNE5
row,effect of a mutation on the interaction,Variant
1,with no effect,F133V

# Variants of: B1
# Conditions: with atm_human ATM
row,effect of a mutation on the interaction,Variant
1,with no effect,F133V

# Variants of: B1
# Conditions: with atpb_human ATP5F1B
row,effect of a mutation on the interaction,Variant
1,with no effect,F133V

# Variants of: B1
# Conditions: with aurkb_human AURKB
row,effect of a mutation on the interaction,Variant
1,with no effect,F133V

# Variants of: B1
# Conditions: with axin2_human AXIN2, Q9Y2T1
row,effect of a mutation on the interaction,Variant
1,with no effect,F133V

# Variants of: B1
# Conditions: with ufo_human AXL
row,effect of a mutation on the interaction,Variant
1,with no effect,F133V

# Variants of: B1
# Conditions: with za2g_human AZGP1, P25311
row,effect of a mutation on the interaction,Variant
1,with no effect,F133V

# Variants of: B1
# Conditions: with b2mg_human B2M
row,effect of a mutation on the interaction,Variant
1,with no effect,F133V

# Variants of: B1
# Conditions: with bap1_human BAP1, Q92560
row,effect of a mutation on the interaction,Variant
1,with no effect,F133V

# Variants of: B1
# Conditions: with bcor_human BCOR
row,effect of a mutation on the interaction,Variant
1,with no effect,F133V

# Variants of: B1
# Conditions: with birc2_human BIRC2, Q13490
row,effect of a mutation on the interaction,Variant
1,with no effect,F133V

# Variants of: B1
# Conditions: with brd4_human BRD4, O60885
# Remark: another data set of the same source
row,effect of a mutation on the interaction,Variant
1,with no effect,F133V

# Variants of: B1
# Conditions: with baba2_human BABAM2, Q9NXR7
row,effect of a mutation on the interaction,Variant
1,with no effect,F133V

# Variants of: B1
# Conditions: with btg1_human BTG1, P62324
row,effect of a mutation on the interaction,Variant
1,with no effect,F133V

# Variants of: B1
# Conditions: with btk_human BTK
row,effect of a mutation on the interaction,Variant
1,with no effect,F133V

# Variants of: B1
# Conditions: with ccnd1_human CCND1, P24385
row,effect of a mutation on the interaction,Variant
1,with no effect,F133V

# Variants of: B1
# Conditions: with ccnd2_human CCND2, P30279
row,effect of a mutation on the interaction,Variant
1,with no effect,F133V

# Variants of: B1
# Conditions: with ccnd3_human CCND3, P30281
row,effect of a mutation on the interaction,Variant
1,with no effect,F133V

# Variants of: B1
# Conditions: with cd44_human CD44, P16070
row,effect of a mutation on the interaction,Variant
1,with no effect,F133V

# Variants of: B1
# Conditions: with cd79b_human CD79B
row,effect of a mutation on the interaction,Variant
1,with no effect,F133V

# Variants of: B1
# Conditions: with cdc73_human CDC73, Q6P1J9
row,effect of a mutation on the interaction,Variant
1,with no effect,F133V

# Variants of: B1
# Conditions: with cdk4_human CDK4, P11802
row,effect of a mutation on the interaction,Variant
1,with no effect,F133V

# Variants of: B1
# Conditions: with cdk6_human CDK6, Q00534
row,effect of a mutation on the interaction,Variant
1,with no effect,F133V

# Variants of: B1
# Conditions: with cdn2c_human CDKN2C
row,effect of a mutation on the interaction,Variant
1,with no effect,F133V

# Variants of: B1
# Conditions: with chd1l_human CHD1L
row,effect of a mutation on the interaction,Variant
1,with no effect,F133V

# Variants of: B1
# Conditions: with chd2_human CHD2, O14647
row,effect of a mutation on the interaction,Variant
1,with no effect,F133V

# Variants of: B1
# Conditions: with ch3l1_human CHI3L1, P36222
row,effect of a mutation on the interaction,Variant
1,with no effect,F133V

# Variants of: B1
# Conditions: with cul3_human CUL3, Q13618
row,effect of a mutation on the interaction,Variant
1,with no effect,F133V

# Variants of: B1
# Conditions: with cul4b_human CUL4B
row,effect of a mutation on the interaction,Variant
1,with no effect,F133V

# Variants of: B1
# Conditions: with daxx_human DAXX
row,effect of a mutation on the interaction,Variant
1,with no effect,F133V

# Variants of: B1
# Conditions: with ddx5_human DDX5, P17844
row,effect of a mutation on the interaction,Variant
1,with no effect,F133V

# Variants of: B1
# Conditions: with dll3_human DLL3, Q9NYJ7
row,effect of a mutation on the interaction,Variant
1,with no effect,F133V

# Variants of: B1
# Conditions: with duox2_human DUOX2, Q9NRD8
row,effect of a mutation on the interaction,Variant
1,with no effect,F133V

# Variants of: B1
# Conditions: with e2f2_human E2F2, Q14209
row,effect of a mutation on the interaction,Variant
1,with no effect,F133V

# Variants of: B1
# Conditions: with e2f3_human E2F3, O00716
row,effect of a mutation on the interaction,Variant
1,with no effect,F133V

# Variants of: B1
# Conditions: with e2f5_human E2F5, Q15329
row,effect of a mutation on the interaction,Variant
1,with no effect,F133V

# Variants of: B1
# Conditions: with e2f6_human E2F6, O75461
row,effect of a mutation on the interaction,Variant
1,with no effect,F133V

# Variants of: B1
# Conditions: with e2f8_human E2F8, A0AVK6
row,effect of a mutation on the interaction,Variant
1,with no effect,F133V

# Variants of: B1
# Conditions: with if4e_human EIF4E
row,effect of a mutation on the interaction,Variant
1,with no effect,F133V

# Variants of: B1
# Conditions: with epha7_human EPHA7, Q15375
row,effect of a mutation on the interaction,Variant
1,with no effect,F133V

# Variants of: B1
# Conditions: with ephb1_human EPHB1, P54762
row,effect of a mutation on the interaction,Variant
1,with no effect,F133V

# Variants of: B1
# Conditions: with erbb3_human ERBB3, P21860
row,effect of a mutation on the interaction,Variant
1,with no effect,F133V

# Variants of: B1
# Conditions: with erbb4_human ERBB4, Q15303
row,effect of a mutation on the interaction,Variant
1,with no effect,F133V

# Variants of: B1
# Conditions: with esr1_human ESR1, P03372
row,effect of a mutation on the interaction,Variant
1,with no effect,F133V

# Variants of: B1
# Conditions: with etv1_human ETV1, P50549
row,effect of a mutation on the interaction,Variant
1,with no effect,F133V

# Variants of: B1
# Conditions: with ezh1_human EZH1, Q92800
row,effect of a mutation on the interaction,Variant
1,with no effect,F133V

# Variants of: B1
# Conditions: with ezh2_human EZH2, Q15910
row,effect of a mutation on the interaction,Variant
1,with no effect,F133V

# Variants of: B1
# Conditions: with facd2_human FANCD2, Q9BXW9
row,effect of a mutation on the interaction,Variant
1,with no effect,F133V

# Variants of: B1
# Conditions: with fgf19_human FGF19, O95750
row,effect of a mutation on the interaction,Variant
1,with no effect,F133V

# Variants of: B1
# Conditions: with fgfp1_human FGFBP1, Q14512
row,effect of a mutation on the interaction,Variant
1,with no effect,F133V

# Variants of: B1
# Conditions: with fgfr4_human FGFR4, P22455
row,effect of a mutation on the interaction,Variant
1,with no effect,F133V

# Variants of: B1
# Conditions: with fumh_human FH
row,effect of a mutation on the interaction,Variant
1,with no effect,F133V

# Variants of: B1
# Conditions: with gbra6_human GABRA6, Q16445
row,effect of a mutation on the interaction,Variant
1,with no effect,F133V

# Variants of: B1
# Conditions: with gata1_human GATA1, P15976
row,effect of a mutation on the interaction,Variant
1,with no effect,F133V

# Variants of: B1
# Conditions: with p66b_human GATAD2B
row,effect of a mutation on the interaction,Variant
1,with no effect,F133V

# Variants of: B1
# Conditions: with gna11_human GNA11, P29992
row,effect of a mutation on the interaction,Variant
1,with no effect,F133V

# Variants of: B1
# Conditions: with gna13_human GNA13, Q14344
row,effect of a mutation on the interaction,Variant
1,with no effect,F133V

# Variants of: B1
# Conditions: with gnaq_human GNAQ
row,effect of a mutation on the interaction,Variant
1,with no effect,F133V

# Variants of: B1
# Conditions: with grm1_human GRM1, Q13255
row,effect of a mutation on the interaction,Variant
1,with no effect,F133V

# Variants of: B1
# Conditions: with grm3_human GRM3, Q14832
row,effect of a mutation on the interaction,Variant
1,with no effect,F133V

# Variants of: B1
# Conditions: with gtpb4_human GTPBP4, Q9BZE4
row,effect of a mutation on the interaction,Variant
1,with no effect,F133V

# Variants of: B1
# Conditions: with h33_human H3-3A
row,effect of a mutation on the interaction,Variant
1,with no effect,F133V

# Variants of: B1
# Conditions: with hdac1_human HDAC1, Q13547
row,effect of a mutation on the interaction,Variant
1,with no effect,F133V

# Variants of: B1
# Conditions: with hdac3_human HDAC3, O15379
row,effect of a mutation on the interaction,Variant
1,with no effect,F133V

# Variants of: B1
# Conditions: with hgf_human HGF
row,effect of a mutation on the interaction,Variant
1,with no effect,F133V

# Variants of: B1
# Conditions: with h31_human H3C1, P68431
row,effect of a mutation on the interaction,Variant
1,with no effect,F133V

# Variants of: B1
# Conditions: with hlab_human HLA-B
row,effect of a mutation on the interaction,Variant
1,with no effect,F133V
